Target: hsKir6.2 (Q52E) subunit of the cryo-EM KATP construct (human) (UniProt Q14654)
Assay: cryo-EM structure

**Q.** With “hsKir6.2 (Q52E) subunit of the cryo-EM KATP construct (from UniProt Q14654 2-390) (natural protein)” as the substance, how does the stoichiometry N read?
**A.** 4

Source: article doi:10.1101/2025.10.27.684718
